Molecular target: T1, Leucine-rich repeat-containing 8A (human (endogenous in HEK 293), UniProt Q8IWT6 1-810)
T1 construct: LRRC8A, essential subunit of the volume-regulated anion channel (VRAC), endogenous in HEK 293 cells; Endogenous protein in lysate; in cells it is part of heteromeric LRRC8 channels, and other subunits may be present in the precipitate; also called LRRC8A; source: endogenous, HEK 293 lysate (1% Triton X-100)
T1 sequence (looked up): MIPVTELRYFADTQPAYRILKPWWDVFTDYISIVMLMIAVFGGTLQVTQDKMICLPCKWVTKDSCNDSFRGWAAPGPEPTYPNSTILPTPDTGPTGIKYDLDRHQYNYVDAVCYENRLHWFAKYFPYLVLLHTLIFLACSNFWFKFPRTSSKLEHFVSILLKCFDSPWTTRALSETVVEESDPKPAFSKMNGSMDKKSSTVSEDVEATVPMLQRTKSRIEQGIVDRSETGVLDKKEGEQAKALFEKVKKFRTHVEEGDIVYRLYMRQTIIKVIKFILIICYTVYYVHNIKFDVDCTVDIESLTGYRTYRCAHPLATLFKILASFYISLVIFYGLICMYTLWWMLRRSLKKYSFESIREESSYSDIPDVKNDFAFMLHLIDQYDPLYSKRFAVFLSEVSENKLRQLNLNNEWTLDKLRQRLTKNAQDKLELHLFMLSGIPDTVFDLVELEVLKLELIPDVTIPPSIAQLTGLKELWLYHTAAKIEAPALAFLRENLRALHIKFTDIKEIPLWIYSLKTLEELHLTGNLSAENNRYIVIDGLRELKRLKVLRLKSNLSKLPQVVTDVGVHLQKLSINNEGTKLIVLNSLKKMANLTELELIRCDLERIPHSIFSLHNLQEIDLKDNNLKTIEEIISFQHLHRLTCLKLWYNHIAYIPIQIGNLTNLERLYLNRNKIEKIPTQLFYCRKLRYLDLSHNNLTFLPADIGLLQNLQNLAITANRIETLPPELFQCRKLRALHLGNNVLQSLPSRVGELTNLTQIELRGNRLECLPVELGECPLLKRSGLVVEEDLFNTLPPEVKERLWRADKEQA
Experiment: co-IP; endogenous proteins; HEK 293 cells exposed to isotonic (300 mOsm/Kg) or hypotonic (255 mOsm/Kg) solution for 7 min at 37°C; lysis in 1% Triton X-100; 100-500 μg protein with 2-4 μg anti-Cav1 or anti-LRRC8A antibody at 4°C overnight, protein A sepharose; western blot
Settings: partners not purified

- LRRC8A/Cav1 ratio, hypotonic vs. isotonic (densitometry of co-IP): 2.2 ratio
B1: Caveolin 1 (natural protein, human (endogenous in HEK 293), UniProt Q03135 1-178, looked up)
chain: MSGGKYVDSEGHLYTVPIREQGNIYKPNNKAMADELSEKQVYDAHTKEIDLVNRDPKHLNDDVVKIDFEDVIAEPEGTHSFDGIWKASFTTFTVTKYWFYRLLSALFGIPMALIWGIYFAILSFLHIWAVVPCIKSFLIEIQCISRVYSIYVHTVCDPLFEAVGKIFSNVRINLQKEI
notes: Caveolin 1, endogenous in HEK 293 cells; also called Cav1; source: endogenous, HEK 293 lysate (1% Triton X-100)
